Results published in US9192657B2, “Activated protein C variants with normal cytoprotective activity but reduced anticoagulant activity” (The Scripps Research Institute, dated 2015).
Numbering of substitutions follows the chain as printed. Numbers in names are those of the source. Blank lines part the entries; values can stand above or below the binder they belong to.

Legend:
[1] = molecular target: T1, endothelial protein C receptor (EPCR), as in the binding assays (Homo sapiens (Human), UniProt Q9UNN8); assay: apparent Kd; binding to immobilized soluble EPCR and to K293 cells transfected with wtEPCR (format of the value not told)
T1 sequence: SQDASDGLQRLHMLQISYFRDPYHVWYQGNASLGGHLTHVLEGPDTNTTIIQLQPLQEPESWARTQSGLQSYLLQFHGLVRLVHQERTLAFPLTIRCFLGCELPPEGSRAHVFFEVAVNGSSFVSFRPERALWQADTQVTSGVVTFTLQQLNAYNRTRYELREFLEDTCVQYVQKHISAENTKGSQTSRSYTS

[2] = molecular target: T2, endothelial protein C receptor (EPCR) on cells (Homo sapiens (Human), UniProt Q9UNN8); assay: cell-based or functional assay
T2 sequence: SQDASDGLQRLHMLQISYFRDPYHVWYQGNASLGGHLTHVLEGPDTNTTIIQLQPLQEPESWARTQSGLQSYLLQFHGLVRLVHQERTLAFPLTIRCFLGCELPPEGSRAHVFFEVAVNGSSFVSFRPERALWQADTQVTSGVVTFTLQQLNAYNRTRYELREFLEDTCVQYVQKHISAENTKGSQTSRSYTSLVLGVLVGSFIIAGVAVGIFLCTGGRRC

[3] = molecular target: T3, protease activated receptor-1 (PAR-1) (Homo sapiens (Human), UniProt P25116); assay: cell-based or functional assay
T3 sequence: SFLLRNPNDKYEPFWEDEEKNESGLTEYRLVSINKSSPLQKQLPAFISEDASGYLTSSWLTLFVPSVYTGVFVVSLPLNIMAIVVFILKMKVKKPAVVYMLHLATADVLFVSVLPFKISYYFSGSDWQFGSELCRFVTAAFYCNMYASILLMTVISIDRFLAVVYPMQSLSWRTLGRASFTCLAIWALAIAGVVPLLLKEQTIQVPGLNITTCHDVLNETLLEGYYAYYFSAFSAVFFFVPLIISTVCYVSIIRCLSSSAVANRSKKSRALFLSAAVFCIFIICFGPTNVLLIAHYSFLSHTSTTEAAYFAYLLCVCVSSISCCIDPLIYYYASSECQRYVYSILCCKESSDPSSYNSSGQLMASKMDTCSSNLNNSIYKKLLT

[4] = molecular target: T2, endothelial protein C receptor (EPCR) …; assay: cell-based or functional assay; remark: listed apart in the source
[5] = molecular target: T3, protease activated receptor-1 (PAR-1); assay: cell-based or functional assay; remark: listed apart in the source
[6] = molecular target: T2, endothelial protein C receptor (EPCR) …; assay: cell-based or functional assay; remark: listed apart in the source
[7] = molecular target: T3, protease activated receptor-1 (PAR-1); assay: cell-based or functional assay; remark: listed apart in the source
factor Va = factor Va (human, UniProt P12259); assay: cell-based or functional assay

Kd [1]: 29 nM
half-maximum inhibition of staurosporine-induced endothelial cell apoptosis (Example 5) [2]: 0.7 nM
half-maximum inhibition of staurosporine-induced endothelial cell apoptosis (Example 5) [3]: 0.7 nM
B1: RR229/230AA plus KKK191-193AAA-APC (enzyme)
chain: ANSFLEELRHSSLERECIEEICDFEEAKEIFQNVDDTLAFWSKHVDGDQCLVLPLEHPCASLCCGHGTCIDGIGSFSCDCRSGWEGRFCQREVSFLNCSLDNGGCTHYCLEEVGWRRCSCAPGYKLGDDLLQCHPAVKFPCGRPWKRMEKKRSHLKRDTEDQEDQVDPRLIDGKMTRRGDSPWQVVLLDSAAALACGAVLIHPSWVLTAAHCMDESKKLLVRLGEYDLAAWEKWELDLDIKEVFVHPNYSKSTTDNDIALLHLAQPATLSQTIVPICLPDSGLAERELNQAGQETLVTGWGYHSSREKEAKRNRTFVLNFIKIPVVPHNECSEVMSNMVSENMLCAGILGDRQDACEGDSGGPMVASFHGTWFLVGLVSWGEGCGLLHNYGVYTKVSRYLDWIHGHIRDKEAPQKSWAP

cytoprotective activity (% wt-APC) [4]: 120 % wt-APC
cytoprotective activity (% wt-APC) [5]: 120 % wt-APC
half-maximum inhibition of staurosporine-induced apoptosis (EA.hy926 cells, Apopercentage dye) [2]: 0.14 nM
half-maximum inhibition of staurosporine-induced apoptosis (Eahy926 cells, Apopercentage staining) [2]: 0.2 nM
reduction of activated caspase-3-positive endothelial cells after staurosporine [2]: ~70%
half-maximum inhibition of staurosporine-induced apoptosis (EA.hy926 cells, Apopercentage dye) [3]: 0.14 nM
half-maximum inhibition of staurosporine-induced apoptosis (Eahy926 cells, Apopercentage staining) [3]: 0.2 nM
reduction of activated caspase-3-positive endothelial cells after staurosporine [3]: ~70%
cytoprotective activity (% rwt-APC), from the concentrations for half-maximal inhibition of apoptosis [6]: 114 % rwt-APC
cytoprotective activity (% rwt-APC), from the concentrations for half-maximal inhibition of apoptosis [7]: 114 % rwt-APC
anticoagulant activity (% rwt-APC), APTT clotting assay in human plasma (factor Va): 4.6 % rwt-APC
B2: KKK191-193AAA-APC (enzyme)
chain: B1 chain with A229R, A230R

cytoprotective activity (% wt-APC), staurosporine-induced apoptosis of Eahy926 cells [4]: < 1 % wt-APC
cytoprotective activity (% wt-APC), staurosporine-induced apoptosis of Eahy926 cells [5]: < 1 % wt-APC
B3: R306A/K311A/R312A/R314A-APC (enzyme)
chain: B1 chain with A191K, A192K, A193K, A229R, A230R, R306A, K311A, R312A, R314A
